One series concerns pilotin (OutS). The series is described as follows: 3JHNHA NMR spectra of secretin peptide with pilotin. Format: binding, Dickeya dadantii. The settings on record: presence of pilotin, 15°C. The protocol:
(§1) Samples of 0.05 to 0.5 mM labelled proteins in 90% H2O, 10% ^2H2O containing 20 mM Tris (pH 7.0) and 150 mM NaCl. All NMR spectra were acquired at 15°C using Bruker Avance 700- and 600-MHz spectrometers. Assignment of ^1H, ^15N, and ^13C resonances of the backbone was achieved by analysis of HNCACB, CBCA (CO)NH triple resonance experiments.
Supplementary file ppat.1002531.s005.doc: Figure S5 3JHNHA spectra of ^15N-labelled secretin peptide (OutD^680–710) in the absence (red) and presence (black) of pilotin (OutS). The spectra were acquired using a Bruker 700 MHz spectrophotometer at measured at 15°C. […] The 3JHNHA coupling constant was calculated according to measurement of the diagonal-peak to cross-peak intensity ratio in a 3D ^15N separated quantitative J-correlation spectra. […] (DOC) Click here for additional data file.

The target of series [1] is T1, non-lipidated pilotin OutS (residues 26 to 132) of Dickeya dadantii (Dickeya dadantii, UniProt Q01567 26-132, disulfide bridge Cys 61-Cys 115).
T1 chain: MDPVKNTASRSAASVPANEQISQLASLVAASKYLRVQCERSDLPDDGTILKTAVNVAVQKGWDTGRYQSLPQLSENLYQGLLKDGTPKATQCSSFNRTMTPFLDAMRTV
The series can be described thus: other fluorescence titration; quenching of the single tryptophan of pilotin (1 µM) on titration with 50 µM secretin peptide in 1 µM pilotin; excitation 290 nm, signal at 340 nm, 15°C. Conditions: both partners purified.

The next series relates to non-lipidated OutS. The series is described as follows: GST pull-down assay. The series is classed as binding, Dickeya dadantii. The protocol:
(§2) Figure S6. Reducing environment prevents interaction of OutS with the C-terminal peptide of OutD. […] Soluble cell extracts of E. coli BL21(DE3) producing either GST alone (lane 1) or GST-OutD649-710 (lanes 2 and 3) were combined with a periplasmic extract containing non-lipidated OutS, then loaded on Glutathione Agarose for 1 h and washed. The incubations were performed in either TBS (lanes 1 and 2) or TBS with 5 mM DTT (lane 3). Bound proteins were eluted with Laemmli sample buffer, separated by Tricine-SDS-PAGE and either stained (upper panel) or probed with OutS antibodies (lower panel). Asterisk indicates a degradation product of GST-OutD649-710. […] The region coding for mature OutS (residues […]) was fused to the C-terminus of T18 subunit of Cya (pUT18-OutS) and the region coding for GST-OutD649-710 was fused to the C-terminus of T25 subunit of Cya (pKT25-GST-Dct). When pUT18-OutS and pKT25-GST-Dct were coexpressed in E. coli DHP1 cya strain, the coresponding fusion proteins were well produced as shown by immunoblotting with anti-OutS and anti-GST antibodies, respectively. […] is indicated by a dot and T25-GST-Dct by a triangle.

A further series relates to OutS. The series can be described thus: Bacterial two-hybrid assay. The series is classed as cell-based, Dickeya dadantii. The method, then: as §2
The next series concerns secretin. The series can be described thus: Effect of pilotin binding-surface mutations on secretin binding. More on the design: species or system Dickeya dadantii. The settings on record: in words. The text has this: The pET-20b(+) plasmid expressing non-lipidated OutS (residues 26 to 132) fused to N-terminal PelB signal peptide has been constructed previously at a manner as the sequence of mature non-lipidated OutS after cleavage by the signal peptidase LepB is: MDP^26VKNT etc. To fuse a C-terminal 6His tag to non-lipidated OutS, SalI site was introduced at the end of outS sequence by using the primer (5′-ctt gac gcc atg cgc acc gtc gac tga ggg gga agc aac tgc) and the reverse complementary one (mutated bases are underlined). Then, by SalI/XhoI digestion the sequence coding for non-lipidated OutS was fused with that coding for 6His. Mutants of OutS were made using Strategene QuikChange and confirmed by sequencing.
Fluorescence data were collected using a Jasco FP-6300 Spectrofluorometer. To avoid exciting tyrosyl side chains, an excitation wavelength of 290 nm was used. Emission spectra were recorded at 15°C in steps of 2 nm from 310 to 400 nm. The fluorescence signal at 340 nm was plotted to calculate K d. Pilotin spectra was measured at 1 µM. 50 µM of secretin peptide prepared in 1 µM pilotin was titrated into pilotin solution (for more information see also Table S1 and reference).

For series [2], the target named is T1, non-lipidated pilotin OutS (residues 26 …). The series can be described thus: NMR titration; 1H-15N HSQC of 15N-labelled pilotin (100 µM), unlabelled secretin peptides titrated in; 15°C, 20 mM Tris pH 7.0, 150 mM NaCl. Conditions: both partners purified.
The nature of series [3]: NMR 1H-15N HSQC of free secretin peptide (disorder). The series is classed as physicochemical. Conditions: 20 mM Tris pH 7.0, 150 mM NaCl, 15°C, 700 MHz. The protocol: as §1
(§3) Supplementary file ppat.1002531.s004.doc: Figure S4 The C-terminus of the 62 residue secretin peptide ([…]) is unstructured. ^1H-^15N HSQC spectra of recombinantly produced ^15N-labelled secretin peptide (70 µM peptide in 20 mM Tris pH 7.0 with 150 mM NaCl at 15°C) acquired using a Bruker 700 MHz spectrophotometer. […] The spectra are cleaner than those shown previously (Figure S2 and S3) because the spectra were acquired quickly. […] (DOC) Click here for additional data file.

Series [4] can be described thus: Cleavage of secretin peptide during lengthy NMR experiments. The series is classed as physicochemical. The settings on record: during more lengthy NMR experiments; 20 mM Tris pH 7.0, 150 mM NaCl, 15°C. The protocol:
as §3

The subject of another series is pilotin. Conditions: ref [11]; cited from earlier work. The text has this: This secretin peptide was produced with ^15N-label as a fusion to GST and then released with PreScision protease.

Ends that are not written are not given here.

Regarding “OutD^680–710: 15N-labelled secretin peptide (OutD680–710) (DNNTLRLSGGNTYTFRQVQSSISDFYKPEGR; also: 15N-labelled; UniProt Q01565 680-710, looked up, fragment)”, in the series on pilotin (OutS), the “residues of secretin peptide that become helical on binding” value is given as “at least four”.

B1: 18 residue synthetic secretin peptide (OutD residues 691 to 708 inclusive) (peptide)
peptide: TYTFRQVQSSISDFYKPE
notes: secretin OutD, Dickeya dadantii, residues 691 to 708 inclusive; also called 18 residue secretin peptide; OutD^691–708; source: synthetic peptide, bought: Generon
B1: in [1], the Kd (in general, the free concentration of one partner at which half of the binding sites on the other are occupied at equilibrium, for simple one-to-one binding) turned out to be 55 ± 20 nM and the stoichiometry N (usually the number of molecules, sites or subunits per partner or assembly) worked out at 1.

B2: OutS: Dickeya dadantii type II secretion system pilotin, non-lipidated (residues 26 to 132), UniProt Q01567 (protein)
chain: CQTPAPVKNTASRSAASVPANEQISQLASLVAASKYLRVQCERSDLPDDGTILKTAVNVAVQKGWDTGRYQSLPQLSENLYQGLLKDGTPKATQCSSFNRTMTPFLDAMRTVR
Turning to B2, the “binding to cognate secretin with reducing agent, pull-down” value in the series with non-lipidated OutS (reducing agent, non-lipidated OutS with GST-OutD649–710) was “unable to bind the cognate secretin”. The “binding to cognate secretin with reducing agent, two-hybrid” value with OutS (bacterial two-hybrid) is recorded as “unable to bind the cognate secretin”.

B3: OutS_S49R (protein, UniProt Q01567 21-133, looked up, variant S49R)
Pilotin OutS: CQTPAPVKNTASRSAASVPANEQISQLARLVAASKYLRVQCERSDLPDDGTILKTAVNVAVQKGWDTGRYQSLPQLSENLYQGLLKDGTPKATQCSSFNRTMTPFLDAMRTVR
Regarding B3, the “effect of mutation on binding” value in the series with secretin was “profound effect on binding”.

B4: OutS_L100A (protein, UniProt Q01567 21-133, looked up, variant L100A)
Pilotin OutS: CQTPAPVKNTASRSAASVPANEQISQLASLVAASKYLRVQCERSDLPDDGTILKTAVNVAVQKGWDTGRYQSLPQLSENAYQGLLKDGTPKATQCSSFNRTMTPFLDAMRTVR
Take B4: the “effect of mutation on binding” value in the series on secretin is on record as “substantial effect on binding”.

B5: OutS_L96A (protein, UniProt Q01567 21-133, looked up, variant L96A)
Pilotin OutS: CQTPAPVKNTASRSAASVPANEQISQLASLVAASKYLRVQCERSDLPDDGTILKTAVNVAVQKGWDTGRYQSLPQASENLYQGLLKDGTPKATQCSSFNRTMTPFLDAMRTVR
B5: the “effect of mutation on binding” value in the series with secretin is “substantial effect on binding”.

B6: OutS_Q114A (protein, UniProt Q01567 21-133, looked up, variant Q114A)
Pilotin OutS: CQTPAPVKNTASRSAASVPANEQISQLASLVAASKYLRVQCERSDLPDDGTILKTAVNVAVQKGWDTGRYQSLPQLSENLYQGLLKDGTPKATACSSFNRTMTPFLDAMRTVR
Regarding B6, the “effect of mutation on binding” value in the series on secretin is recorded as “substantial effect on binding”.

B7: 62 residue C-terminal secretin peptide (OutD residues 649-710) (peptide)
chain: DPGQFQEASINKYRSFNNEQQQQRGEGNGVLDNNTLRLSGGNTYTFRQVQSSISDFYKPEGR
notes: secretin OutD, Dickeya dadantii, C-terminal 62 residues (649-710); 15N-labelled in one titration, unlabelled in the other; The peptide is slowly cleaved; also called 62 residue secretin peptide; OutD^648–710; source: E. coli BL21(DE3), purified as GST fusion, released with PreScision protease; not shown: GST, N-terminal, cleaved
B7: in [2], the “stoichiometry N” value is 1.

B8: 62 residue secretin peptide: C-terminal 62 residues of the secretin, produced as a fusion to GST and released with PreScision protease (protein)
chain: DPGQFQEASINKYRSFNNEQQQQRGEGNGVLDNNTLRLSGGNTYTFRQVQSSISDFYKPEGR
modifications: left off: GST, N-terminal, cleaved
notes: C-terminal 62 residues of the secretin, produced as a fusion to GST and released with PreScision protease
Turning to B8, the “structure in solution (dispersion of backbone amides)” value is reported as “intrinsically unstructured” in series [3] and “unstructured in solution” in series [3] (listed as C-terminal 62 residues). The cleavage of peptide entry in [4] is given as “slowly cleaved”. Also, the binding to pilotin entry with pilotin is on record as “bound to the pilotin”.

B9: GST-OutD649-710: C-terminal segment of OutD fused to GST; in two-hybrid fused to C-terminus of T25 subunit of Cya (protein)
chain: DPGQFQEASINKYRSFNNEQQQQRGEGNGVLDNNTLRLSGGNTYTFRQVQSSISDFYKPEGR
modifications: not fully specified (N-terminus); also: fused to GST
notes: C-terminal segment of OutD fused to GST; in two-hybrid fused to C-terminus of T25 subunit of Cya
For the molecule B9, the “binding in GST pull-down” value in the series with non-lipidated OutS (reducing conditions, TBS with 5 mM DTT, 1 h on Glutathione Agarose) was “does not bind”. Moreover, the “colony colour in bacterial two-hybrid assay” value in the series with OutS (MacConkey-maltose agar, known interacting couple used as positive control) is “white colonies”. In addition, the “interaction in bacterial two-hybrid assay” value in the series with OutS (reducing conditions of the bacterial cytoplasm, T25/T18 fusions, E. coli DHP1 cya, MacConkey-maltose agar) was “does not interact”.

Source of the values: paper PMC3276575, “Structural and Functional Insights into the Pilotin-Secretin Complex of the Type II Secretion System” (PLoS Pathogens, 2012).
